One test has as its target SLC25A1 (UniProt P53007). Put plainly: co-IP, anti-FLAG, lysate of N-FLAG B3GNT2 cells, mass spectrometry.
For the next test, the target named is RAB1B (UniProt Q9H0U4). The description is as above.
The target in another test is PRR4 (UniProt Q16378). The test is described as above.
In another test the target is DPM1 (UniProt O60762). The test is described as above.
For another test, the target named is CSPG4 (UniProt Q6UVK1). The description is as above.
A further test deals with XPO1 (human) (UniProt O14980). In words: co-IP with IgG control, lysate of C-FLAG B3GNT2 cells, mass spectrometry.
The target of a further test is PRRC2C (human) (UniProt Q9Y520). The description is as above.
The target in a further test is JUP (human) (UniProt P14923). The test is described as above.
Another test addresses MMP14 (human) (UniProt P50281). The test is described as above.
Test [1] has as its target P0AA25.2 [thioredoxin: P0AA25]. Described as above.
Another test has as its target LUC7L3 (human) (UniProt O95232). The description is as above.
The target in a further test is PUF60 (human) (UniProt Q9UHX1). Described as above.
The next test has as its target HNRNPH1 (human) (UniProt P31943). Described as above.
In another test the target is LAMC1 (human) (UniProt P11047). Described as above.
The target in another test is TM9SF1 (human) (UniProt O15321). The description is as above.
In the next test the target is RPL6 (human) (UniProt Q02878). The test is described as above.
The next test addresses RPL17 (human) (UniProt P18621). Described as above.
For the next test, the target named is HBB (human) (UniProt P68871). The test is described as above.
A further test addresses CPSF7 (human) (UniProt Q8N684). The test is described as above.
The target in another test is PURA (human) (UniProt Q00577). Described as above.
The next test addresses TGM1 (human) (UniProt P22735). The test is described as above.
The target in the next test is P4HA2 (human) (UniProt O15460). Described as above.
In the next test the target is SBSN (human) (UniProt Q6UWP8). The description is as above.
Another test deals with XPOT (human) (UniProt O43592). Described as above.
For the next test, the target named is PSMA3 (human) (UniProt P25788). Described as above.
The target in the next test is RPL7A (human) (UniProt P62424). Described as above.
Another test deals with DDX3X (human) (UniProt O00571). The test is described as above.
The target in the next test is ARPC1B (human) (UniProt O15143). The description is as above.
Another test concerns the target PSMB5 (human) (UniProt P28074). The test is described as above.
A further test has as its target MMS19 (human) (UniProt Q96T76). The test is described as above.
The next test deals with TTC13 (human) (UniProt Q8NBP0). Described as above.
The next test concerns the target TPM2 (human) (UniProt P07951). Described as above.
For a further test, the target named is CPT1A (human) (UniProt P50416). Described as above.
The target in a further test is RBM14 (human) (UniProt Q96PK6). The test is described as above.
Another test deals with UniProt P01837.1. Described as above.
In a further test the target is SPARC (human) (UniProt P09486). The description is as above.
The next test deals with RPS24 (human) (UniProt P62847). The test is described as above.
The next test addresses COPA (human) (UniProt P53621). The test is described as above.

Chain of DDX3X (human) (O00571 2-662 limits assumed): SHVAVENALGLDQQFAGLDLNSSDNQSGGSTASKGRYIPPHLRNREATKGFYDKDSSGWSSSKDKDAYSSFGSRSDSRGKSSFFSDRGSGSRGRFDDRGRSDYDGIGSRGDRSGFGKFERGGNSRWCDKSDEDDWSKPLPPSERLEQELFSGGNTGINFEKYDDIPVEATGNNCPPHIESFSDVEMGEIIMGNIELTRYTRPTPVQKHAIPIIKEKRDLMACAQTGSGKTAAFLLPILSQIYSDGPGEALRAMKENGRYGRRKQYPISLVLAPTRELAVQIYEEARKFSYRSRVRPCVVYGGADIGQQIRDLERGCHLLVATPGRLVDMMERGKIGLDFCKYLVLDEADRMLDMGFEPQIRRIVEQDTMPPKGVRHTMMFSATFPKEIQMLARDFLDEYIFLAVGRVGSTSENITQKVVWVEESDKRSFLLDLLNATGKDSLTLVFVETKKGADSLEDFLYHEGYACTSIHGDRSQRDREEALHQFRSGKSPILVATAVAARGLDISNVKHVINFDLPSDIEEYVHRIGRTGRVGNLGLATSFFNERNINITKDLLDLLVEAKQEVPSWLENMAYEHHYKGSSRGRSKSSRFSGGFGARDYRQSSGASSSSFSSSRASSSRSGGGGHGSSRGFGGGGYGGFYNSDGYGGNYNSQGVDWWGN
Chain of SPARC (human) (P09486 18-303 limits assumed): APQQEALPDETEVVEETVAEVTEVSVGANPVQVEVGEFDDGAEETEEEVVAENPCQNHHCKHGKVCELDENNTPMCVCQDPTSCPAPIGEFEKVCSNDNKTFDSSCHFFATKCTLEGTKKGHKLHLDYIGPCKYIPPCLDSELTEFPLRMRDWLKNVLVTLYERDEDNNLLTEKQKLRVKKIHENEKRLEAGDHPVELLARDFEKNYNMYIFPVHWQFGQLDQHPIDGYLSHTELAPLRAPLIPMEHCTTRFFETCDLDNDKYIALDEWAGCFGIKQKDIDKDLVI
Chain of XPO1 (human) (O14980 whole entry): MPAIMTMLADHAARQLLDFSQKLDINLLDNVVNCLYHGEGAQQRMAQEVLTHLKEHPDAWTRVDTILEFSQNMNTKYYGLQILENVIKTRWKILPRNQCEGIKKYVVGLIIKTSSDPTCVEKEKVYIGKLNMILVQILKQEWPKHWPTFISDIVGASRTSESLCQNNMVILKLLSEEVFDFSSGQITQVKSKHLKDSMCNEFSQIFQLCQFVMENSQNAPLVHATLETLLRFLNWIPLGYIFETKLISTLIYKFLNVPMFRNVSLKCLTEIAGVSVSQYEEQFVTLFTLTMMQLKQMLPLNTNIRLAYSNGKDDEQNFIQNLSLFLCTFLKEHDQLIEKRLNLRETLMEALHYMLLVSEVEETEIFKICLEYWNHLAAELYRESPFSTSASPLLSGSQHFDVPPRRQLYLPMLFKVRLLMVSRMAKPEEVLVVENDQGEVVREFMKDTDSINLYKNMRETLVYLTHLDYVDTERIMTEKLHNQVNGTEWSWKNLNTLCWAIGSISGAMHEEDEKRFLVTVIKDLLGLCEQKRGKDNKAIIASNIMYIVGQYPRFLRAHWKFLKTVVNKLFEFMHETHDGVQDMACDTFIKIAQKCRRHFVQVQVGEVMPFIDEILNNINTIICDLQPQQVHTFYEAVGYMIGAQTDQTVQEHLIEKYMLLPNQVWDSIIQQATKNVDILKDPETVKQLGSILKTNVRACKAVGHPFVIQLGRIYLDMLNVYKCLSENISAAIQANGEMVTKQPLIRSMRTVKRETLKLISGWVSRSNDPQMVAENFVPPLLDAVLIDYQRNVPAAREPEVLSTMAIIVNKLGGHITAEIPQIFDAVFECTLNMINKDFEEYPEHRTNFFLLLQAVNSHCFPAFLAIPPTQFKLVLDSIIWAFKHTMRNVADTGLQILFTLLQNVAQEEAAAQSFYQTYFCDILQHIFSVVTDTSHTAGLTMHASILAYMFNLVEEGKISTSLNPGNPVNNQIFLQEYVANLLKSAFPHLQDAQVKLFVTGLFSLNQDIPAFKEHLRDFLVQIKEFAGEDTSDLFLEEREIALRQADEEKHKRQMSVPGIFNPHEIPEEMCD
Chain of CPSF7 (human) (Q8N684 whole entry): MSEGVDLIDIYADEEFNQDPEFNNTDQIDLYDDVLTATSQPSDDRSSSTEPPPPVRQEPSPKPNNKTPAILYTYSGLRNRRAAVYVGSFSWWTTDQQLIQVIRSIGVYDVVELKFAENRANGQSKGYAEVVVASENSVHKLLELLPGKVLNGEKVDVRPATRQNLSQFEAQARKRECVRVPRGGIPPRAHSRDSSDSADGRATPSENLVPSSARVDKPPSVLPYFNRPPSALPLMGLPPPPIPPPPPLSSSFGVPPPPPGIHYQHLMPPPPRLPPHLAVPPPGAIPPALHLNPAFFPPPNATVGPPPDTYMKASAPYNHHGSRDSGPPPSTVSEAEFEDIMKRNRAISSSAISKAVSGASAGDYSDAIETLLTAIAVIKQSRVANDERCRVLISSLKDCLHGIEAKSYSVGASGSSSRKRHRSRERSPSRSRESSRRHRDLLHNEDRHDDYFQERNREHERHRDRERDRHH
Chain of CPT1A (human) (P50416 other isoform, or with tags, fused parts or gaps limits assumed): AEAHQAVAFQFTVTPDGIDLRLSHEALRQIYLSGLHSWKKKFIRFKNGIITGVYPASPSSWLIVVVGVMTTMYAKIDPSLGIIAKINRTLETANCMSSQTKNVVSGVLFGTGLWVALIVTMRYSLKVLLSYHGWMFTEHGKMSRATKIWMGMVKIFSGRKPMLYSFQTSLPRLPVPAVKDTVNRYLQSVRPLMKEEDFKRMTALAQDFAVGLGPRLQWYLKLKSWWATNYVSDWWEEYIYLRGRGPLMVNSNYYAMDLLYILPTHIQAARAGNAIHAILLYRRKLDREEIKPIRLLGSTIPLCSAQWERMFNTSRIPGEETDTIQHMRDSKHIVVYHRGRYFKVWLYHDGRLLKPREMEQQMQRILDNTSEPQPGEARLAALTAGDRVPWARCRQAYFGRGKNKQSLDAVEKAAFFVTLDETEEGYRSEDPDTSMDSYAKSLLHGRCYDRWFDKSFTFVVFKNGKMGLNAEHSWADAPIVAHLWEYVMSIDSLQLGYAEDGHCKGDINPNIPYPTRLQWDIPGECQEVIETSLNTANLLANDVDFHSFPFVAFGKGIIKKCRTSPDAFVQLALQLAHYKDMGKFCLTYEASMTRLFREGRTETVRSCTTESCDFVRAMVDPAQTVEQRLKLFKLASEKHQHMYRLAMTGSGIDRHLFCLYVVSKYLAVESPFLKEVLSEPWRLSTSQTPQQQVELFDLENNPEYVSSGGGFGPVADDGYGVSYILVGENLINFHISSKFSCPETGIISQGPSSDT
Chain of PSMB5 (human) (P28074 60-263 limits assumed): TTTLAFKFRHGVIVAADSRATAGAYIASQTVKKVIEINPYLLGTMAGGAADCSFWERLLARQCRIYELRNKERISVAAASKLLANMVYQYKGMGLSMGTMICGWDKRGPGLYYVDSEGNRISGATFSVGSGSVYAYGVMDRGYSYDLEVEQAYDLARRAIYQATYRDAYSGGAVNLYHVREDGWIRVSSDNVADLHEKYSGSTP
Chain of XPOT (human) (O43592 whole entry): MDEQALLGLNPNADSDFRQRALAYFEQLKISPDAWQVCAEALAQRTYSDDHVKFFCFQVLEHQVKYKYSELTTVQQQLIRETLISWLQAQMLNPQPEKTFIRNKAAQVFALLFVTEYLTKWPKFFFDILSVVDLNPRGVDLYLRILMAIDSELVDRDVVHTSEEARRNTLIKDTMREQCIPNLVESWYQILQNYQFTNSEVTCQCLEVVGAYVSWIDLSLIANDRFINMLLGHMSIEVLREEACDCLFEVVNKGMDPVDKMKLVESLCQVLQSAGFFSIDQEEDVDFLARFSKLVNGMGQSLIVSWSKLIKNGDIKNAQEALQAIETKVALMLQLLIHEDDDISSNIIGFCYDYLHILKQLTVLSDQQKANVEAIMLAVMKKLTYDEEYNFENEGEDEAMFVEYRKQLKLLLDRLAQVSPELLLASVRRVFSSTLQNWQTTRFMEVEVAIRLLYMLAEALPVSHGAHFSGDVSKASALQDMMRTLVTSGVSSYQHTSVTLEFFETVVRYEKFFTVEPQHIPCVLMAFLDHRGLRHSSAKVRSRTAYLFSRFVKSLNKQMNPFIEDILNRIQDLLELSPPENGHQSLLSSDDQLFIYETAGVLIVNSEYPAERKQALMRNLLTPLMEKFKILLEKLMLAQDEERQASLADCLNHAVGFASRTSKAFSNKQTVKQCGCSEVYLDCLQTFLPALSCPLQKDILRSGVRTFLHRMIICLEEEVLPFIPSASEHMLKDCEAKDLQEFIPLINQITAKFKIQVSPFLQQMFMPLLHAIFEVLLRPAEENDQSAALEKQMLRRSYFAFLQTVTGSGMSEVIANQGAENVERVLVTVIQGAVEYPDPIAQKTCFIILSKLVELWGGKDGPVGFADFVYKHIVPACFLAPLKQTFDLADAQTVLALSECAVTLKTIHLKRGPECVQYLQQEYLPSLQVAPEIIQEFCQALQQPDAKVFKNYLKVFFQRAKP
Chain of HBB (human) (P68871 2-147 limits assumed): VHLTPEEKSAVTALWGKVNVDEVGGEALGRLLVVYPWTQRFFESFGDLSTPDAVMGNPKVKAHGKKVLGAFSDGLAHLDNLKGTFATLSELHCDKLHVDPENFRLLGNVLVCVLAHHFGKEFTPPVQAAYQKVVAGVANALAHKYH
Chain of RPS24 (human) (P62847 other isoform, or with tags, fused parts or gaps limits assumed): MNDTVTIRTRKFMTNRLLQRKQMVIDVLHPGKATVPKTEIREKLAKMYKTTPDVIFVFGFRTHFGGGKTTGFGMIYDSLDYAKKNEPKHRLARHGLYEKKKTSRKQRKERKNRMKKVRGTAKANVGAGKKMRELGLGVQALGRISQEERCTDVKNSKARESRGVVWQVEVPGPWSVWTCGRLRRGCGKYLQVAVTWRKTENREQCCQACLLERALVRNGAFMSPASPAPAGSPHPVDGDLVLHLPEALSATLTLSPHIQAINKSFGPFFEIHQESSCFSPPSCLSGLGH
Chain of P0AA25.2 [thioredoxin: P0AA25] (P0AA25 2-109): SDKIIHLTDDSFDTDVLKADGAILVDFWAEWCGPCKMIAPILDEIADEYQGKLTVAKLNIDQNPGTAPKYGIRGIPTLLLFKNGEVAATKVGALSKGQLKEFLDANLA

Regarding “N-terminal FLAG tagged B3GNT2 (from UniProt Q9NY97 1-397) (enzyme)”, the co-IP/MS count with SLC25A1 turned out to be 5; with RAB1B, 0; with PRR4 it was 2; with DPM1, 4; with CSPG4 it was 2.

On to “IgG control (Millipore Sigma 12-371) (antibody)”, for which the co-IP/MS count, C-term IgG came out at 0 in the test with XPO1 (human); 6 in the test with PRRC2C (human); 36 with JUP (human); 0 with MMP14 (human); 8 in test [1]; 3 with LUC7L3 (human). Moreover, the co-IP/MS count, C-term IgG with PUF60 (human) is 5; in the test with HNRNPH1 (human), 11; in the test with LAMC1 (human) it was 0; in the test with TM9SF1 (human) it was 0; in the test with RPL6 (human), 4; with RPL17 (human), 2. Moreover, the co-IP/MS count, C-term IgG in the test with HBB (human) was 0; in the test with CPSF7 (human), 9; with PURA (human), 0; with TGM1 (human), 10; with P4HA2 (human), 0; in the test with SBSN (human) it was 15. Besides, the co-IP/MS count, C-term IgG in the test with XPOT (human) was determined as 0; in the test with PSMA3 (human), 0; with RPL7A (human), 5; with DDX3X (human) it was 15; in the test with ARPC1B (human) it was 2; with PSMB5 (human) it was 0. Moreover, the co-IP/MS count, C-term IgG with MMS19 (human) was determined as 0; with TTC13 (human), 0; in the test with TPM2 (human) it was 0; with CPT1A (human), 0; with RBM14 (human), 0; with UniProt P01837.1, 108. For the same substance, the co-IP/MS count, C-term IgG with SPARC (human) was 0; in the test with RPS24 (human), 2; with COPA (human) it was 0.

For the origin of these results see patent US20240261333A1, “NOVEL TARGETS FOR ENHANCING ANTI-TUMOR IMMUNITY” (THE BROAD INSTITUTE, INC., priority 2021, published 2024).
